Experimental data: publication PMC5773591, “Structural basis of trans-synaptic interactions between PTPδ and SALMs for inducing synapse formation” (Nature Communications, 2018)

B1: human SALM5 LRR–Ig-His6 (residues 18–378) [human] / itself (parent)
chain: QICPKRCVCQILSPNLATLCAKKGLLFVPPNIDRRTVELRLADNFVTNIKRKDFANMTSLVDLTLSRNTISFITPHAFADLRNLRALHLNSNRLTKITNDMFSGLSNLHHLILNNNQLTLISSTAFDDVFALEELDLSYNNLETIPWDAVEKMVSLHTLSLDHNMIDNIPKGTFSHLHKMTRLDVTSNKLQKLPPDPLFQRAQVLATSGIISPSTFALSFGGNPLHCNCELLWLRRLSREDDLETCASPPLLTGRYFWSIPEEEFLCEPPLITRHTHEMRVLEGQRATLRCKARGDPEPAIHWISPEGKLISNATRSLVYDNGTLDILITTVKDTGAFTCIASNPAGEATQIVDLHIIKLP

Variants of: B1
Assay: SEC-MALS
Settings: with itself; read off a plot

| Variant | screen value [kDa] |
| --- | --- |
| chain 1 N141A | 56 |
